# Results: patent US9192648
# Biological target: complement C5
# Test: assay for the IC50 not described; told with the direct binding to C5 (FIG. 4C)
substance,measurement,value
EV576 protein (from UniProt Q5YD59 19-168),IC50,20 µg/mL
